In paper PMC7473840 (2018):
No end group written: not given here.

Target: FMRP (Homo sapiens, UniProt Q06787)

Binder | Kd [µM]
TSCPKIPSSPDLKKS (also: phosphoserine pS440, position in chain not given here) | 33.9
TSCPKIPSSPDLKKS (also: phosphoserine pS440 plus a second phosphosite, positions not given here) | 0.42
